Experimental data published in PMC8024975.

Target: P. aeruginosa ClpGGI WT (P. aeruginosa)

Binder: FLRYLKASKVPLN [peptide 134]
- ATPase activity of 1 μM ClpGGI with increasing Pep134 concentrations (saturation of the stimulation at 25 μM peptide) (ATP min^−1 monomer^−1): 108
